The target in assay [1] is T1, Mouse Trop-2 (Mus musculus, UniProt Q8BGV3).
T1 sequence (Q8BGV3 25-317): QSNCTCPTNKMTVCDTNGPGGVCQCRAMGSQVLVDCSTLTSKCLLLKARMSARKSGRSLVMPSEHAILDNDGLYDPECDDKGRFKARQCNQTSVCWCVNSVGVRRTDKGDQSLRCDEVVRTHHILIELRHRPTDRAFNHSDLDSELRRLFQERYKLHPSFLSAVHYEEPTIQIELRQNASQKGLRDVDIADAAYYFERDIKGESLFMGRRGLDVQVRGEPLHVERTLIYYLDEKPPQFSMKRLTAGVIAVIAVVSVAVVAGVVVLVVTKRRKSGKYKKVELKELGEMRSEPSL
As to the kind of experiment: Binding to mouse Trop-2 measured by surface plasmon resonance (SPR). The text has this: (§1) To engineer an anti-mouse Trop-2 ADC binding to mouse Trop-2 with proprieties similar to SG, we selected a commercially available anti-mouse Trop-2 rabbit antibody (Sino Biological, #50922-R064) and murinized it to obtain an anti-mouse Trop-2 IgG2a (Rab64/mG2a/mKap). Rab64 mAb was then coupled to CL2A linker/SN-38 payload at a high DAR (˜8-9).
Background: In SPR one partner is held on a chip, and binding of the other changes the refractive index at the surface.

Assay [2] has as its target T2, Human Trop-2 (Homo sapiens, UniProt P09758).
T2 sequence (P09758 27-323): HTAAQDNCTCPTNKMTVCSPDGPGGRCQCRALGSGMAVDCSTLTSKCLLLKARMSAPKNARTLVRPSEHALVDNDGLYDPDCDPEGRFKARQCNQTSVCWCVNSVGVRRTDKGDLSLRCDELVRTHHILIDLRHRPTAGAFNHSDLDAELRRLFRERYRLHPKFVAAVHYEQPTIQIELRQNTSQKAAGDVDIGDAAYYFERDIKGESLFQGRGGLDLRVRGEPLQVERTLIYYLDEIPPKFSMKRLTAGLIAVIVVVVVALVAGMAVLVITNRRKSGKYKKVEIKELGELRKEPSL
As to the kind of experiment: Binding to human Trop-2 measured by surface plasmon resonance (SPR).
Text: as §1

The target of assay [3] is Human Trop-2 (human) (UniProt P09758). The assay is described as follows: SPR.

As usually defined, the Kd is the constant that tells how readily two partners part at equilibrium. High values mean a looser complex, low ones a tighter complex. A word on the koff: it is the rate constant with which the complex falls apart. Higher therefore signals a short-lived complex. By kon is commonly meant the rate constant with which the complex forms. Read a high kon as faster complex formation.

On to “hRS7-hIgG1k: humanized monoclonal antibody hRS7 IgG1κ, which binds to Trop-2”, for which, in assay [1], the KD result was “No binding detected”. This molecule also gave an equilibrium dissociation constant (Kd) in assay [2] of 0.328 nM.

B1: hRS7-hIgG1k (antibody, INN chains, looked up, V domains shown)
VH: QVQLQQSGSELKKPGASVKVSCKASGYTFTNYGMNWVKQAPGQGLKWMGWINTYTGEPTYTDDFKGRFAFSLDTSVSTAYLQISSLKADDTAVYFCARGGFGSSYWYFDVWGQGSLVTVSS
VL: DIQLTQSPSSLSASVGDRVSITCKASQDVSIAVAWYQQKPGKAPKLLIYSASYRYTGVPDRFSGSGSGTDFTLTISSLQPEDFAVYYCQQHYITPLTFGAGTKVEIKR
In assay [3], B1 registered a Kd of 0.328 nM, a koff of 0.000144 s⁻¹ and a kon of 440000 M⁻¹ s⁻¹.

B2: Sacituzumab Govitecan (SG, Trodelvy) (antibody, INN chains, looked up, IgG1, V domains shown)
VH: QVQLQQSGSELKKPGASVKVSCKASGYTFTNYGMNWVKQAPGQGLKWMGWINTYTGEPTYTDDFKGRFAFSLDTSVSTAYLQISSLKADDTAVYFCARGGFGSSYWYFDVWGQGSLVTVSS
VL: DIQLTQSPSSLSASVGDRVSITCKASQDVSIAVAWYQQKPGKAPKLLIYSASYRYTGVPDRFSGSGSGTDFTLTISSLQPEDFAVYYCQQHYITPLTFGAGTKVEIKR
modifications: CL2A-SN-38, DAR 7.5
In assay [3], B2 had a Kd of 0.361 nM, a koff of 0.000153 s⁻¹ and a kon of 423000 M⁻¹ s⁻¹.

The record behind these values is US20250249115A1, “COMBINATION THERAPY FOR TREATING TUMOR ANTIGEN EXPRESSING CANCERS” (Gilead Sciences, Inc., priority 2022, published 2025).
